According to the DeepSol protein solubility set:

Assay: soluble on expression in E. coli; label from the status in PepcDB or PDB records

Sequence | soluble on expression in E. coli
MMRVAIFTDTFTPQVNGVAKTLERLTQYFQKEQIAYSVFAPQHTAEDNFVANVNKMRSIPLTILYPECRFSFPTPRIKRELLSFKPDIIHIATPFNMGLCGLYYAKKLNIPVVGSYHTDFDAYLRYYKIEFLSNMLWNYLKWFHSHMQKNFVPSFETLHQLKNKGFQTLSIWGRGVDCTLFHPAYNTDLFRKKYNITAKYVLSYVGRIAPEKDIDTLQHLIVKTAHTRNDIHWLIAGDGPLATSLREAVPKTNITFTGYLQGGDLAEAYACSNIMVFPSATETFGNVVLESLACGTPVIGANSGGVKNIITDGKTGVLCPPKNEDAFLSSIYFLLQNEEKLEQMGIESSSFAKSKSWDEVFRGLLNQYEEVLQHNASELLALEHHHHHH | soluble
MGSDKIHHHHHHMKIIDGNIASPLGFSADGLHAGFKKRKKDFGWIVSEVPASVAGVYTTNKVIAAPLIVTRESVKKAQKMQALVVNSGVANSCTGLQGMEDAYTMQKWTATKLKIAPELVGVASTGVIGDLMPMDTLQKGLSKLVVNGNSDDFAQAILTTDTKVKTVAVTEQFGRDEVTMAGVAKGSGMIHPNMATMLAFITCDAVISSETLQLALSQNVETTFNQITVDGDTSTNDMVLVLSNGCTLNKEILPDTPEFDKFSAMLHFVMQELAKKIAKDGEGATKLIEVEVINAPNSLDACMMAKSVVGSSLVKTAIFGEDPNWGRILAAVGYAGVDVPVDNIDIYLADIPVMLASSPVDFDEEDMQDVMRADTIKIIVDLHAGDSVGKAWGCDLSYDYVKINALYRT | not soluble
SVTSSQVMLMPAHDSAKPTGFGIMVTSLDLLRDHQKVIHTLWFIDDVVARELGGFDGFCRRERVLLLFVDSTNTTLSFTRNDMTCVPRQGGADSDHWLFKRHLALLLPLSFAQVYEGFISFYEEEDKHISWDIKSCSSSSHQ | not soluble
MAIALVTGGSRGIGRATALLLAQEGYTVAVNYQQNLHAAQEVMNLITQAGGKAFVLQADISDENQVVAMFTAIDQHDEPLAALVNNAGILFTQCTVENLTAERINRVLSTNVTGYFLCCREAVKRMALKNGGSGGAIVNVSSVASRLGSPGEYVDYAASKGAIDTLTTGLSLEVAAQGIRVNCVRPGFIYTEMHASGGEPGRVDRVKSNIPMQRGGQAEEVAQAIVWLLSDKASYVTGSFIDLAGGK | not soluble
AAAMKLAYWMYAGPAHIGTLRIASSFKNVHGIMHAPLGDDYFNVMRSMLERERDFTPVTASIVDRHVLARGSQEKVVDNIIRKDTEEHPDLIVLTPTCTSSILQEDLQNFVRRASLSTTADVLLADVNHYRVNELQAADRTLEQIVQFYIDKARRQGTLGTSKTPTPSVNIIGITTLGFHNQHDCRELKQLMADLGIQVNLVIPAAATVHDLQRLPQAWFNLVPYREIGGLTAQYLEREFGQPSVRITPMGVVETARCIRAIQGVLNAQGAGVNYEAFIEQQTREVSQAAWFSRSIDCQNLTGKKAVVFGDNTHAAAMTKILSREMGIHVVWAGTYCKYDADWFRAEVAGFCDEVLITDDHTVVGDAIARVEPAAIFGTQMERHVGKRLNIPCGVIAAPIHIQDFPVGYRPFLGYEGTNQLVDLIYNSFTLGMEDHLLEIFGGHDTKAVIHKGLSADSDLTWTAAGLAELNKIPGFVRGKVKRNTEKFAREQGISEITVEVLYAAKEAVGA | soluble
MATRGPTPDKARMGLPDRWLHCPKTGTLINNLFFPFKTPLCKMYDNQIAERRYQFHPAEVFSHPHLHGKKIGLWIDLTNTDRYYFREEVTEHECIYHKMKMAGRGVSPTQEDTDNFIKLVQEFHKKYPDRVVGVHCTHGFNRTGFLIAAYLFQVEEYGLDAAIGEFAENRQKGIYKQDYIDDLFARYDPTEDDKILAPEKPDWEREMSIGMSTQIDNGRPSTSQQIPATNGNNNQNGNQLSGGGDNSKLFMDGLIRGVKVCEDEGKKSMLQAKIKNLCKYNKQGFPGLQPVSLSRGNINLLEQESYMVSWKADGMRYIIYINDGDVYAFDRDNEVFEIENLDFVTKNGAPLMETLVDTEVIIDKVEINGAMCDQPRMLIYDIMRFNSVNVMKEPFYKRFEIIKTEIIDMRTAAFKTGRLKHENQIMSVRRKDFYDLEATAKLFGPKFVQHVGHEIDGLIFQPKKTKYETGRCDKVLKWKPPSHNSVDFLLKVEKKCKEGMLPEWIGYLFVQNLSDPFGTMKATATLKKYHNKIIECTLLVDNQGRPKEWKFMRERTDKSLPNGLRTAENVVETMVNPVTETYLIEYVNHALRVLKRAAAAHRHHQIHQQQLHEGEPEARRQKL | not soluble
MRLPTEAHLRQHVRVIDSMSCNREKVRDLRRQIPSFDCVPGCHDCCGPVTTSSEEMSRLPRKTVAEQEAAFNELNCVHLGPQGCTVYDERPLICRLFGTTASLPCPNGRRPVELIHPRAEKQIHEYMASTRQVLVLEHHHHHH | not soluble
